According to patent US20120021995A1 (published 2012):
Positions count from the first letter of the chain named.

Tests used:
[1] = biological target: T1, recombinant human TRAIL R1 (DR4)/Fc chimera (human, UniProt O00220 24-239); experiment: SPR (Biacore), DR4-Fc captured by anti-Fc, ATRIMER analyte; apparent
T1 construct: bought (R&D Systems); not shown: Fc of the bought chimera (R&D Systems)
T1 sequence: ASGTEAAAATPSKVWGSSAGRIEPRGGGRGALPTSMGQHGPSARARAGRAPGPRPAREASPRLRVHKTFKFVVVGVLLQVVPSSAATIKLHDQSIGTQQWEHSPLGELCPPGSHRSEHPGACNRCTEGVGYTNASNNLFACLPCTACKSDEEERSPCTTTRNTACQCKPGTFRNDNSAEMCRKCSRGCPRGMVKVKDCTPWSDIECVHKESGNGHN
Description: (§1) Immobilization of an anti-human IgG Fc antibody (Biacore) to the CM5 chip (Biacore) was performed using standard amine coupling chemistry and this surface was used to capture recombinant human DR4 or DR5 receptor Fc fusion protein (R&D Systems). ATRIMER™ dilutions (1-500 nM) were injected over the DR4 and DR5 receptor surface at 30 μl/min and kinetic constants were derived from the sensorgram data using the Biaevaluation software (version 3.1, Biacore). Data collection was 3 minutes for the association and 5 minutes for dissociation. The anti-human IgG surface was regenerated with a 30 s pulse of 3 M magnesium chloride. All sensorgrams were double-referenced against an activated and blocked flow-cell as well as buffer injections.

[2] = biological target: T2, DR4 (TRAIL-R1) on cancer cells (human, UniProt O00220 24-468); experiment: cell-based or functional assay
T2 sequence: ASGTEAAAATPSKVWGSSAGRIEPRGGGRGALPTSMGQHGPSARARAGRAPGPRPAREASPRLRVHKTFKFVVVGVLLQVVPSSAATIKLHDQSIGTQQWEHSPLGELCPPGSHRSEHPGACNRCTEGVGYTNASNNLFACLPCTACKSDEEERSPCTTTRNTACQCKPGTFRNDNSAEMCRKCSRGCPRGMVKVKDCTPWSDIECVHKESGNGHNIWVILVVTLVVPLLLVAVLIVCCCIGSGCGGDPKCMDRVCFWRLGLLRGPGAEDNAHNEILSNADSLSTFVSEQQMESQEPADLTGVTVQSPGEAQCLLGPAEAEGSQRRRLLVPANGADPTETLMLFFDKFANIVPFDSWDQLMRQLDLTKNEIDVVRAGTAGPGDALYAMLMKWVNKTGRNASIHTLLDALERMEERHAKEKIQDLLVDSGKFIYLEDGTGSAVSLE

[3] = biological target: T2, DR4 (TRAIL-R1) on cancer cells; experiment: cell-based or functional assay; remark: listed apart in the source
[4] = biological target: T1, recombinant human TRAIL R1 (DR4)/Fc …; experiment: SPR (Biacore), ATRIMER
Description: as §1
Clones were then sub-cloned into pANA19 for expression and purification as described above. Cell killing activity was measured as described above, and binding affinity was measured by Biacore.

[5] = biological target: T2, DR4 (TRAIL-R1) on cancer cells; experiment: cell-based or functional assay; remark: listed apart in the source
[6] = biological target: T3, recombinant human TRAIL R2 (DR5)/Fc chimera (human, UniProt O14763 54-182); experiment: SPR (Biacore), DR5-Fc captured by anti-Fc, ATRIMER analyte; apparent
T3 construct: bought (R&D Systems); not shown: Fc of the bought chimera (R&D Systems)
Description: as §1

[7] = biological target: T2, DR4 (TRAIL-R1) on cancer cells; experiment: cell-based or functional assay; remark: listed apart in the source
[8] = biological target: T1, recombinant human TRAIL R1 (DR4)/Fc …; experiment: phage ELISA on DR4/Fc

B1: 014-42.3B8 (designed binder)
chain: EPPTQKPKKIVNAKKDVVNTKMFEELKSRLDTLAQEVALLKEQQALQTVCLKGTKVHMKCFLAFTQTKTFHEASEDCISRGGTLSTPQTGSENDALYEYLRQSVGNEAEIWLGLNGWLEGVGWVDMTGARIAYKNWETEITAQPDGGEHWGWENCAVLSGAANGKWFDKRCRDQLPYICQFGIV
notes: ATRIMER; also called 14p42P3B8
Ka [1]: 1.11e+08 M⁻¹ | Kd [1]: 9.01 nM | koff [1]: 0.00101 s⁻¹ | kon [1]: 112000 M⁻¹ s⁻¹

B2: 014-42.3D10 (designed binder)
chain: B1 chain with W117Y, V121Y, E148A, H149T, W150I, G151A
notes: ATRIMER
Ka [1]: 6.58e+06 M⁻¹ | Kd [1]: 152 nM | koff [1]: 0.00185 s⁻¹ | kon [1]: 12200 M⁻¹ s⁻¹

B3: 014-42.3D11 (designed binder)
chain: B1 chain with V121A, E148W, G151R
notes: ATRIMER
Ka [1]: 2.53e+07 M⁻¹ | Kd [1]: 39.5 nM | koff [1]: 0.000526 s⁻¹ | kon [1]: 13300 M⁻¹ s⁻¹

B4: 71p88P1A3 (designed binder)
chain: B1 chain with W117Y, E119A, V121T, E148R, H149V, W150L, G151A
Colo205 % killing (% of TRAIL activity) [2]: -7% | H2122 % killing (% of TRAIL activity) [2]: -3% | ST486 % killing (% of TRAIL activity) [2]: 41% | ED50 ST486 (cell killing) [3]: 170 nM

B5: 119p83P1H1 (designed binder)
chain: EPPTQKPKKIVNAKKDVVNTKMFEELKSRLDTLAQEVALLKEQQALQTVCLKGTKVHMKCFLAFTQTKTFHEASEDCISRGGTLSTPQTGSENDALYEYLRQSVGNEAEIWLGLNGWLEGVGWVDMTGARIAYKNWTQRHSGQPDGGWPFSNENCAVLSGAANGKWFDKRCRDQLPYICQFGIV
notes: ATRIMER from pANA19
Kd [4]: 1.42 nM | koff [4]: 0.000329 s⁻¹ | kon [4]: 221000 M⁻¹ s⁻¹ | ED50 (nM) ST486 (cell killing) [5]: 13 nM

B6: 119p83P1H4 (designed binder)
chain: B5 chain with T137S, Q138K, R139V, H140R, S141L, G142E
notes: ATRIMER from pANA19
Kd [4]: 0.16 nM | koff [4]: 2.21e-05 s⁻¹ | kon [4]: 138000 M⁻¹ s⁻¹ | ED50 (nM) ST486 (cell killing) [5]: 0.13 nM

B7: 119p94P1B4 (designed binder)
chain: B5 chain with T137A, Q138E, R139V, H140P, S141F, G142F
notes: ATRIMER from pANA19
Kd [4]: 2.82 nM | koff [4]: 0.00052 s⁻¹ | kon [4]: 185000 M⁻¹ s⁻¹ | ED50 (nM) ST486 (cell killing) [5]: 127 nM

B8: 119p94P1B5 (designed binder)
chain: B5 chain with T137A, Q138R, R139H, H140I, S141N, G142E
notes: ATRIMER from pANA19
Kd [4]: 1.11 nM | koff [4]: 0.000406 s⁻¹ | kon [4]: 360000 M⁻¹ s⁻¹ | ED50 (nM) ST486 (cell killing) [5]: 6.6 nM

B9: 119p94P1C1 (designed binder)
chain: B5 chain with T137A, Q138I, R139S, H140D, S141E, G142R
notes: ATRIMER from pANA19
Kd [4]: 1.85 nM | koff [4]: 0.000571 s⁻¹ | kon [4]: 141000 M⁻¹ s⁻¹ | ED50 (nM) ST486 (cell killing) [5]: 251 nM

B10: 119p94P1D8 (designed binder)
chain: B5 chain with T137G, Q138W, R139M, H140D, G142K
notes: ATRIMER from pANA19
Kd [4]: 1.31 nM | koff [4]: 0.000542 s⁻¹ | kon [4]: 400000 M⁻¹ s⁻¹ | ED50 (nM) ST486 (cell killing) [5]: 30.5 nM

B11: 119p94P1F4 (designed binder)
chain: B5 chain with T137A, Q138A, R139V, H140T, S141M, G142E
notes: ATRIMER from pANA19
Kd [4]: 2.96 nM | koff [4]: 0.000892 s⁻¹ | kon [4]: 125000 M⁻¹ s⁻¹ | ED50 (nM) ST486 (cell killing) [5]: 308 nM

B12: 119p94P1G7 (designed binder)
chain: B5 chain with T137G, Q138W, R139S, H140A, S141R, G142V
notes: ATRIMER from pANA19
Kd [4]: 2.41 nM | koff [4]: 0.0007 s⁻¹ | kon [4]: 349000 M⁻¹ s⁻¹ | ED50 (nM) ST486 (cell killing) [5]: 25.5 nM

B13: 029-15.B3D (designed binder)
chain: EPPTQKPKKIVNAKKDVVNTKMFEELKSRLDTLAQEVALLKEQQALQTVCLKGTKVHMKCFLAFTQTKTFHEASEDCISRGGTLSTPQTGSENDALYEYLRQSVGNEAEIWLGLNELRTDGLWVDMTGARIAYKNWETEITAQPDGGVMRRSENCAVLSGAANGKWFDKRCRDQLPYICQFGIV
notes: ATRIMER; also called 9b3d
Ka [6]: 1.11e+06 M⁻¹ | Kd [6]: 899 nM | koff [6]: 0.000104 s⁻¹ | kon [6]: 116 M⁻¹ s⁻¹

B14: 029-15.B9F (designed binder)
chain: B13 chain with E116K, L117R, R118V, T119W, D120Y, G121R, L122G, V148M, M149R, S152R
notes: ATRIMER; also called 2a1a
Ka [6]: 2.38e+07 M⁻¹ | Kd [6]: 42.8 nM | koff [6]: 0.00184 s⁻¹ | kon [6]: 43800 M⁻¹ s⁻¹

B15: 142p62P1A2 (designed binder)
chain: B1 chain with V121S, E137G, T138D, E139Q, I140R, T141L, E148V, H149Q, G151R
EC50 Colo205 (cell killing) [7]: 0.39 nM | EC50 ST486 (cell killing) [7]: 0.3 nM

B16: 142p62P1G2 (designed binder)
chain: B1 chain with V121S, E137A, T138D, I140R, T141F, A142L, E148V, H149Q, G151R
EC50 Colo205 (cell killing) [7]: 0.32 nM | EC50 ST486 (cell killing) [7]: 0.2 nM

B17: 142p72P1C9 (designed binder)
chain: B1 chain with V121S, E137G, T138D, E139P, I140R, T141W, A142S, E148V, H149Q, G151R
EC50 Colo205 (cell killing) [7]: 0.18 nM | EC50 ST486 (cell killing) [7]: 0.03 nM

B18: 65p114P1A3 (designed binder)
chain: B1 chain with V121S, E137A, T138D, E139P, I140K, T141W, A142S, E148V, H149Q, G151R
EC50 Colo205 (cell killing) [7]: 0.11 nM | EC50 ST486 (cell killing) [7]: 0.05 nM

B19: 65p114P1B2 (designed binder)
chain: B1 chain with V121S, E137F, T138H, E139D, I140R, T141F, A142N, E148V, H149Q, G151R
EC50 Colo205 (cell killing) [7]: 0.18 nM | EC50 ST486 (cell killing) [7]: 0.09 nM

B20: 119p83P1H12 (designed binder)
chain: ALQTVCLKGTKVHMKCFLAFTQTKTFHEASEDCISRGGTLSTPQTGSENDALYEYLRQSVGNEAEIWLGLNGWLEGVGWVDMTGARIAYKNWGTHISSQPDGGWPFSNENCAVLSGAANGKWFDKRCRDQLPYICQFGIV
notes: on phage
binding result [8]: binds

B21: 119p94P1A4 (designed binder)
chain: B20 chain with G93F, T94A, H95E, I96F, S97F, S98L
notes: on phage
binding result [8]: binds

B22: 119p94P1B2 (designed binder)
chain: B20 chain with G93W, T94F, H95P, I96T, S97L
notes: on phage
binding result [8]: binds

B23: 119p94P1B6 (designed binder)
chain: B20 chain with G93H, T94P, H95Q, I96G, S97D, S98R
notes: on phage
binding result [8]: binds

B24: 119p94P1B8 (designed binder)
chain: B20 chain with G93W, T94S, H95Y, I96W, S97D, S98T
notes: on phage
binding result [8]: binds

B25: 119p94P1D2 (designed binder)
chain: B20 chain with G93L, T94D, H95V, I96T, S97K, S98T
notes: on phage
binding result [8]: binds

B26: 119p94P1D4 (designed binder)
chain: B20 chain with G93A, T94A, H95F, I96P, S97V, S98E
notes: on phage
binding result [8]: binds

B27: 119p94P1D11 (designed binder)
chain: B20 chain with T94S, H95T, I96G, S97E, S98K
notes: on phage
binding result [8]: binds

B28: 119p94P1E7 (designed binder)
chain: B20 chain with G93I, T94W, H95S, I96R, S97I, S98E
notes: on phage
binding result [8]: binds

B29: 119p94P1E10 (designed binder)
chain: B20 chain with G93R, T94V, H95P, I96S, S97L, S98R
notes: on phage
binding result [8]: binds

B30: 119p94P1G1 (designed binder)
chain: B20 chain with T94E, H95V, S97A, S98P
notes: on phage
binding result [8]: binds

B31: 119p94P1H3 (designed binder)
chain: B20 chain with G93S, T94L, H95S, I96W, S97H, S98P
notes: on phage
binding result [8]: binds

B32: 119p94P1H10 (designed binder)
chain: B20 chain with G93S, H95A, I96Q, S97N, S98G
notes: on phage
binding result [8]: binds
